One molecule from US20240101645A1 (HENRY M JACKSON FOUNDATION FOR THE ADVANCEMENT OF MILITARY …, published 2024) can be followed below.

A value given as a limit tells only on which side of the number the result lay.

In assay [1] the target is SARS-CoV-2 S on pseudovirions (Wuhan Hu-1 / IL1/2020, last 18 amino acids removed) (SARS-CoV-2, UniProt P0DTC2 14-1273). Description: cell-based or functional assay.
Assay [2] concerns the target T1, HCoV-OC43 spike antigens (bead panel) (HCoV-OC43, UniProt P36334 14-1297).
T1 sequence: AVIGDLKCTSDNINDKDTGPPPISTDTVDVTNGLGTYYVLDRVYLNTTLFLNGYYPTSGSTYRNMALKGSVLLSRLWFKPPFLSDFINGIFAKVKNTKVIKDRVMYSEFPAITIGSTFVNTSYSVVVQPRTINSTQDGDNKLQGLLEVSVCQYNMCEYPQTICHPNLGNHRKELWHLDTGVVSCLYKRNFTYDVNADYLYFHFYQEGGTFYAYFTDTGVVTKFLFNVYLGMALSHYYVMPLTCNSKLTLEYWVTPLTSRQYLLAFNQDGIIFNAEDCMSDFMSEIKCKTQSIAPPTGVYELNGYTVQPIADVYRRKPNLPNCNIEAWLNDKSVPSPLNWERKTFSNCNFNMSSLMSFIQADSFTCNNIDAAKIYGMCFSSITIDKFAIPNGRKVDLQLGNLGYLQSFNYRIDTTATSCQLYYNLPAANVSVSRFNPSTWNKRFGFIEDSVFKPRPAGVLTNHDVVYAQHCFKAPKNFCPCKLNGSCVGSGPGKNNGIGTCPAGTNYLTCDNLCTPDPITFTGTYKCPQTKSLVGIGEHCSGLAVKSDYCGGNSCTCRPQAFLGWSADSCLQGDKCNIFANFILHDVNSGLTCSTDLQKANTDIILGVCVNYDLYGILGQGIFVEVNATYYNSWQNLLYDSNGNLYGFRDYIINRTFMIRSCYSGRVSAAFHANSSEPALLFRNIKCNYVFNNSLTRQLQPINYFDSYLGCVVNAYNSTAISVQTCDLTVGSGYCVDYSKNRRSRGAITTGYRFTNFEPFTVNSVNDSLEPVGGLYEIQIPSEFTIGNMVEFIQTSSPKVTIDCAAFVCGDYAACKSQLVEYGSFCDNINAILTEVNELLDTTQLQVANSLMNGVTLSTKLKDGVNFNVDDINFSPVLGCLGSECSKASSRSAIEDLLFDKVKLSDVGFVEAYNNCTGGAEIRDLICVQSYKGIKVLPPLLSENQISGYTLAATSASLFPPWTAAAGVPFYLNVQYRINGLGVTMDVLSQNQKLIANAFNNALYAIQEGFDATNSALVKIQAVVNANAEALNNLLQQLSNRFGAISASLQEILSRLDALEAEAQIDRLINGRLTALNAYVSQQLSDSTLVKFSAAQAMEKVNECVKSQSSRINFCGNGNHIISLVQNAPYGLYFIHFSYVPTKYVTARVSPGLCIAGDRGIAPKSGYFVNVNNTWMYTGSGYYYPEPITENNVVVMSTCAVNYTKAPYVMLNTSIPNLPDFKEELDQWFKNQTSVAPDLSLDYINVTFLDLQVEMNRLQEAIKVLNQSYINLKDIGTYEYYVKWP
Description: multiplex bead assay.

The target of assay [3] is T2, HCoV-229E spike antigens (bead panel) (HCoV-229E, UniProt P15423 16-1115).
T2 sequence: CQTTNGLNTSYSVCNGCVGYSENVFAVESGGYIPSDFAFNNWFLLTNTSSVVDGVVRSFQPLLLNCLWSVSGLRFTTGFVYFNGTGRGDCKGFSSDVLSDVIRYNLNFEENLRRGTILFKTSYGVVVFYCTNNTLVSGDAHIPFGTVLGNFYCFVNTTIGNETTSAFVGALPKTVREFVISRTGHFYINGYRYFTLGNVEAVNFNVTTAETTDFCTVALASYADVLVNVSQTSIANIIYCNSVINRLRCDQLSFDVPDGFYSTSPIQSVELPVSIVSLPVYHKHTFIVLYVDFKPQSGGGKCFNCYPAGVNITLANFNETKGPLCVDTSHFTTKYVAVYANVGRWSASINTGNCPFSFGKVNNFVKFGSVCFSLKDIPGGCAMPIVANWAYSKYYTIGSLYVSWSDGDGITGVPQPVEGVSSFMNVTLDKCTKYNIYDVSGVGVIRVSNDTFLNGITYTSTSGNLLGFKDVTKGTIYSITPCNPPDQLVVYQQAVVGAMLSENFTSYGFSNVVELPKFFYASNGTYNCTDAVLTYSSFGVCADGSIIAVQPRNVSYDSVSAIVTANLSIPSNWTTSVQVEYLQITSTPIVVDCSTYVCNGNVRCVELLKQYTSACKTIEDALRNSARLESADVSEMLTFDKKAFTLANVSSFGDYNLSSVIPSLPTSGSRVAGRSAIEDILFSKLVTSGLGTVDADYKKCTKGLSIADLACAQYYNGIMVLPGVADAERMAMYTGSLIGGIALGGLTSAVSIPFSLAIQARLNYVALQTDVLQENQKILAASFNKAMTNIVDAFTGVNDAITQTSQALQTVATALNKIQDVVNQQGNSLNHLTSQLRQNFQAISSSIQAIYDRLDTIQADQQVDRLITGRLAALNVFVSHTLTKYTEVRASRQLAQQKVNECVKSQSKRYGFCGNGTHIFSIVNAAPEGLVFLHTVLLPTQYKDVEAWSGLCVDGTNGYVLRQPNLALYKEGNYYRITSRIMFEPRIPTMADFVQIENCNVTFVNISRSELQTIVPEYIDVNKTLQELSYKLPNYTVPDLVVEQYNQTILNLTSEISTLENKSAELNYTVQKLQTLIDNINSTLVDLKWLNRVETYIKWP
Description: multiplex bead assay.

Assay [4] concerns the target SARS-CoV-1 spike antigens (bead panel) (SARS-CoV-1, UniProt P59594 14-1195). Description: multiplex bead assay.
In assay [5] the target is T3, HCoV-NL63 spike antigens (bead panel) (HCoV-NL63, UniProt Q6Q1S2 19-1296).
T3 sequence: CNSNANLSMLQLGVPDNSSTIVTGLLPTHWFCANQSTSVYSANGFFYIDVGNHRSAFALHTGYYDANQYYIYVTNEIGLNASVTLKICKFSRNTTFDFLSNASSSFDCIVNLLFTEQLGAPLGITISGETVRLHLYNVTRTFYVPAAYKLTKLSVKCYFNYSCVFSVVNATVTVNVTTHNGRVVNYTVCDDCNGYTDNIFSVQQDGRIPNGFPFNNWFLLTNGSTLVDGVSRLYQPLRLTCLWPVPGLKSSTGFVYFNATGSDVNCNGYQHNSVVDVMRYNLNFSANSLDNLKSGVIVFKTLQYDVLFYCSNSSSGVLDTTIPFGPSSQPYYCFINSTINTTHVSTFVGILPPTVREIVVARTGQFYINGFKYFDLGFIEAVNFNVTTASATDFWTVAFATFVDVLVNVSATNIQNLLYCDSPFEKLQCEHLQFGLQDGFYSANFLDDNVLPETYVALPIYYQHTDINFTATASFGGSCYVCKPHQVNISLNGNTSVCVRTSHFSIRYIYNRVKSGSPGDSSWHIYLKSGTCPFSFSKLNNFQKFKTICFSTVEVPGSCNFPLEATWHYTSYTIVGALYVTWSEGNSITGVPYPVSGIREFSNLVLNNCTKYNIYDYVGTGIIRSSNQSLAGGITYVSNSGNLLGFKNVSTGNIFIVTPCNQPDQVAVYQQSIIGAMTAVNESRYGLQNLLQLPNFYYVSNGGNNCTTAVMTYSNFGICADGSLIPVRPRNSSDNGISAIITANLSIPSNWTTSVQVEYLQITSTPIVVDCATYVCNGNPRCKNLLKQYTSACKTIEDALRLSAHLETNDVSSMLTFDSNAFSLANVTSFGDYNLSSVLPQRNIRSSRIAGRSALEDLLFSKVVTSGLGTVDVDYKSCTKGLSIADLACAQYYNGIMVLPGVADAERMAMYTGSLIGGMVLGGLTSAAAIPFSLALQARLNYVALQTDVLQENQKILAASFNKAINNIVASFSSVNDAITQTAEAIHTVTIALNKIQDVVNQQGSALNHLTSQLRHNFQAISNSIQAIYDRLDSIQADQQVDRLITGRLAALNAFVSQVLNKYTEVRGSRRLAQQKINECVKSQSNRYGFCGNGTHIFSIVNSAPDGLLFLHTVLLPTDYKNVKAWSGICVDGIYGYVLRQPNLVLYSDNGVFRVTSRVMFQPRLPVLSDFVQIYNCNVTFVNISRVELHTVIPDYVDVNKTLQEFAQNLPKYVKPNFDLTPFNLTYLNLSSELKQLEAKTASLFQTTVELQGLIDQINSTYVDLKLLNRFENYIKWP
Description: multiplex bead assay.

B1: COV_1007 (antibody, V domains shown)
VH: QVTLKESGPVLVKPTETLTLTCTVSGFSLINARVGVSWIRQPPGKALDWLAHIFSSDEKSYSTSLKSRLTISKDTSKSQVVLTMTNMDPVDTATYYCARIRWLSSYYFDYWGQGTLVTVSS
VL: DIRMTQSPSSVSASVGDRVTITCRASQGISNWLAWYQQKPGKAPKLLIYAASSLQSGVPSRFSGGGSGTDFTLTISSLQPEDFATYYCQQANSFLLTFGGGTKVEIK
notes: human IgG1
Regarding B1, the “Mean IC50, pSV neutralization” value in assay [1] came out at 9 µg/ml. The “Mean IC80, pSV neutralization” value in assay [1] is at least 25 µg/ml. The binding result in assay [2], in assay [3], in assay [4] and in assay [5] was “no binding” each time.
